Columns and labels:
human CXCR5 [1] = target: T1, human CXCR5 (human, UniProt P32302 1-372); assay: flow cytometry, human PBMC Tfh-like cells
T1 construct: also called hCXCR5; C-X-C chemokine receptor type 5
T1 sequence: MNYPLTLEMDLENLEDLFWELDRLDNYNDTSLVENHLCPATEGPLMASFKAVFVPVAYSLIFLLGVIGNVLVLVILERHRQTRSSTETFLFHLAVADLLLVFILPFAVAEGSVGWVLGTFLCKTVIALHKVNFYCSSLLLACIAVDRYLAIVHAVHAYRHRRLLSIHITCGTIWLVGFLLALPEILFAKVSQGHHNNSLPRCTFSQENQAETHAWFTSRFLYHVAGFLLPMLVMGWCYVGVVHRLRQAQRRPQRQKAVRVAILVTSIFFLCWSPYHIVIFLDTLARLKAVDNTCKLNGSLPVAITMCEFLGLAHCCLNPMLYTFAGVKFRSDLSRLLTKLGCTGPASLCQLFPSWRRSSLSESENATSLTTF
Experimental: (§1) The apparent affinity for cell surface CXCR5 of chimeric and humanized CXCR5 fucosylated and afucosylated antibodies was assessed. More specifically, to determine the apparent affinity of chimeric and humanized CXCR5 antibodies to CXCR5-expressing cells, cell binding experiments were performed on human and cynomolgus monkey peripheral blood mononuclear cells (PBMCs) and human tonsillar mononuclear cells (TMCs). The apparent affinity of CXCR5 mab binding to CXCR5+ cells (B cells, bona fide Tfh cells, and circulating Tfh-like cells) was calculated as the EC50 of equilibrium binding titration curves in which the geometric mean fluorescence intensity (gMFI) of the antigen binding population was quantified by flow cytometry.
(§2) Following isolation, PBMCs were plated at a density of 1.0×10⁵ cells per well and CD4+ TMCs were plated at a density of 2.0×10⁵ cells per well in isolation buffer (PBS containing 1% FBS and 1 mM EDTA) in 96 well U-bottom plates. The plates were then centrifuged at 1500 rpm for 5 minutes at room temperature. PBMCs and CD4+ TMCs were resuspended in Fluorescence-activated cell sorting (FACS) buffer (PBS containing 1% FBS) containing human crystallized fragment Fc block (2 μL per well; Biolegend) and 4-fold serial dilutions of the antibodies (11-point dilution series, beginning at 5000 ng/mL for PBMCs and 312.5 ng/mL for CD4+ TMCs) and incubated on ice for 2 hours. […]

rat CXCR5 ortholog = target: T2, rat CXCR5 ortholog (rat, UniProt P34997 1-374); assay: not described
T2 sequence (looked up): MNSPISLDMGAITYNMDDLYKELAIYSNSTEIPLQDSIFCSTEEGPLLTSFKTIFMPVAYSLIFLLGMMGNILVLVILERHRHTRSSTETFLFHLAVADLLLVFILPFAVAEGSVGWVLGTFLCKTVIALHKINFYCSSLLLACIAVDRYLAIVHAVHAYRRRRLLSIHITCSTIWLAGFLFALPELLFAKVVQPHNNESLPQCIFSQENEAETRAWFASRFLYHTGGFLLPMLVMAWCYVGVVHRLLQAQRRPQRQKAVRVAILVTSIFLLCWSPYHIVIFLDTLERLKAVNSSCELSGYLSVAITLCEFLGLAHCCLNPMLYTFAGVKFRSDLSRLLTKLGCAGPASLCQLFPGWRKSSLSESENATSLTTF

rabbit CXCR5 ortholog = target: T3, rabbit CXCR5 ortholog (rabbit, UniProt G1TNG1 1-374); assay: not described
T3 sequence: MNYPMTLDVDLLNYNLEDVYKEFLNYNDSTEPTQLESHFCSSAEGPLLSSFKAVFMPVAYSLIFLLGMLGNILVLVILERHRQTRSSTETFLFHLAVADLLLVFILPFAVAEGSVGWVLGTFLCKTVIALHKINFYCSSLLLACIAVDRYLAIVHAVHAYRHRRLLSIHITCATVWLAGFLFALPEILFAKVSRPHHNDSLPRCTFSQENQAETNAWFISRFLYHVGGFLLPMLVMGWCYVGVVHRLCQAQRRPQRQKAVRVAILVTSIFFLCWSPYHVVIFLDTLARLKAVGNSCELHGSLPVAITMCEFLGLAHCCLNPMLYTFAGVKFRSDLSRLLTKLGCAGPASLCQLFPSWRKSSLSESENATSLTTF

cynomolgus monkey CXCR5 = target: T4, cynomolgus monkey CXCR5 (cynomolgus monkey, UniProt P32302 1-372 (human entry)); assay: flow cytometry, cynomolgus PBMC Tfh-like cells
T4 construct: also called cynoCXCR5; NHP CXCR5
T4 chain: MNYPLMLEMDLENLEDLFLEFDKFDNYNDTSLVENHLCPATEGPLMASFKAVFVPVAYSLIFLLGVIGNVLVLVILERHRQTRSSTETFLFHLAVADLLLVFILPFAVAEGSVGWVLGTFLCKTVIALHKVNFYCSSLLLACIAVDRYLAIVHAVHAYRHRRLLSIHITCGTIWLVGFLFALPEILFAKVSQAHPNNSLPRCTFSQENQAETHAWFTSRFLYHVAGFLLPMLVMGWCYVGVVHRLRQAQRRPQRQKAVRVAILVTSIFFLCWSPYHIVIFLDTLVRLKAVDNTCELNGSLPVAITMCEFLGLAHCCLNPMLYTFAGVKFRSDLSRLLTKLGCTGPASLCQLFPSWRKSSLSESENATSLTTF
Experimental: as §1, §2

human CXCR5 [2] = target: T1, human CXCR5; assay: flow cytometry on Raji cells

B1: Afucosyl humanized 11G2 154/155 (antibody, human IgG1, kappa, V domains shown)
VH: EVQLVESGGGLVQPGGSLRLSCAASGFTFTDFYMSWVRQAPGKGLEWVGFIRNKANGYTTEYSASVKGRFTISRDNAKNSLYLQMNSLRAEDTAVYYCARVYGSTLHYWGQGTLVTVSS
VL: DIQMTQSPSSLSASVGDRVTITCRASESVEYHGTSLMHWYQQKPGKAPKLLIYAASNVESGVPSRFSGSGSGTDFTLTISSLQPEDFATYYCQQSRKVPWTFGQGTKVEIKR
modifications: afucosylated Fc glycan (Asn297)
notes: also called afucosyl h11G2 XC154/XC155; afucosylated h11G2 VL XC154/VH XC155
With B1 the EC50 (human CXCR5 [1]) was 0.00589 nM, the binding result (rat CXCR5 ortholog) was “no binding” and the binding result (rabbit CXCR5 ortholog) was “no binding”. It also gave an EC50 (cynomolgus monkey CXCR5) of 0.0105 nM.

B2: 2C9 (reference antibody) (antibody, human IgG1, kappa, V domains shown)
VH: EVQLVESGGGLVKPGGSLRLSCAASGFTFSTNAMNWVRQAPGKGLERVARIRSKSNNYATYYADSVKDRFTISRDDSKNTLYLQMNSLKTEDTAVYYCVTMIPFAYWGQGTLVTVSS
VL: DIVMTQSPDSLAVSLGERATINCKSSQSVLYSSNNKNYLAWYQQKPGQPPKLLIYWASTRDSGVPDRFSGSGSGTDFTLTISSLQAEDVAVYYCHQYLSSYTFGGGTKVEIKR
notes: fucosylated
Work on B2 yielded an EC50 (human CXCR5 [2]) of 0.0999 nM.
